According to patent publication US20200397865A1 (ACCELERON PHARMA, published 2020):

T1: ALK4-Fc:ActRIIB-Fc heterodimer (human, UniProt P36896 24-126; Q13705 20-134)
T1 construct: also called ALK4-Fc:ActRIIB-Fc heterodimeric complex; ALK4:ActRIIB heterodimer; not shown: linker and engineered Fc
T1 sequence 1: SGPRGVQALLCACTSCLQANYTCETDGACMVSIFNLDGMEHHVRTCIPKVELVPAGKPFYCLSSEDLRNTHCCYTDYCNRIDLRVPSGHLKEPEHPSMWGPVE
T1 sequence 2: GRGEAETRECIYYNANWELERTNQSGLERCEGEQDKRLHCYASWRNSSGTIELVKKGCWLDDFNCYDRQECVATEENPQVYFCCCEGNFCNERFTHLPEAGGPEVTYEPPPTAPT

B1: BMP6 (ligand, UniProt P22004 382-513, looked up)
chain: QQSRNRSTQSQDVARVSSASDYNSSELKTACRKHELYVSFQDLGWQDWIIAPKGYAANYCDGECSFPLNAHMNATNHAIVQTLVHLMNPEYVPKPCCAPTKLNAISVLYFDDNSNVILKKYRNMVVRACGCH
B2: ActRIIB-Fc homodimer (Fc fusion, UniProt Q13705 20-134, looked up)
chain: T1 sequence 2
notes: also called ActRIIB-Fc:ActRIIB-Fc homodimer; ActRIIB homodimer; not shown: linker and Fc
B3: GDF3 (ligand, UniProt Q9NR23 251-364, looked up)
chain: AAIPVPKLSCKNLCHRHQLFINFRDLGWHKWIIAPKGFMANYCHGECPFSLTISLNSSNYAFMQALMHAVDPEIPQAVCIPTKLSPISMLYQDNNDNVILRHYEDMVVDECGCG
B4: activin A (ligand, UniProt P08476 311-426, looked up)
chain: GLECDGKVNICCKKQFFVSFKDIGWNDWIIAPSGYHANYCEGECPSHIAGTSGSSLSFHSTVINHYRMRGHSPFANLKSCCVPTKLRPMSMLYYDDGQNIIKKDIQNMIVEECGCS
notes: also called ActA
B5: GDF11 (ligand, UniProt O95390 299-407, looked up)
chain: NLGLDCDEHSSESRCCRYPLTVDFEAFGWDWIIAPKRYKANYCSGQCEYMFMQKYPHTHLVQQANPRGSAGPCCTPTKMSPINMLYFNDKQQIIYGKIPGMVVDRCGCS
notes: also called BMP11
B6: BMP9 (ligand, UniProt Q9UK05 320-429, looked up)
chain: SAGAGSHCQKTSLRVNFEDIGWDSWIIAPKEYEAYECKGGCFFPLADDVTPTKHAIVQTLVHLKFPTKVGKACCVPTKLSPISVLYKDDMGVPTLKYHYEGMSVAECGCR
notes: also called GDF2
B7: activin B (ligand, UniProt P09529 293-407, looked up)
chain: GLECDGRTNLCCRQQFFIDFRLIGWNDWIIAPTGYYGNYCEGSCPAYLAGVPGSASSFHTAVVNQYRMRGLNPGTVNSCCIPTKLSTMSMLYFDDEYNIVKRDVPNMIVEECGCA
B8: BMP10 (ligand, UniProt O95393 317-424, looked up)
chain: NAKGNYCKRTPLYIDFKEIGWDSWIIAPPGYEAYECRGVCNYPLAEHLTPTKHAIIQALVHLKNSQKASKACCVPTKLEPISILYLDKGVVTYKFKYEGMAVSECGCR

Legend:
Experiment in all cases: SPR (Biacore), Fc protein captured by anti-Fc antibody, ligand injected
[1] = target: T1, ALK4-Fc:ActRIIB-Fc heterodimer
Procedure: (§1) A Biacore™-based binding assay was used to compare ligand binding selectivity of the ALK4-Fc:ActRIIB-Fc heterodimeric complex described above with that of ActRIIB-Fc and ALK4-Fc homodimer complexes. The ALK4-Fc:ActRIIB-Fc heterodimer, ActRIIB-Fc homodimer, and ALK4-Fc homodimer were independently captured onto the system using an anti-Fc antibody. Ligands were injected and allowed to flow over the captured receptor protein. Results are summarized in the table below, in which ligand off-rates (kd) most indicative of effective ligand traps are denoted in bold font.

activin A = target: B4
Procedure: as §1

BMP6 = target: B1
Procedure: as §1

activin B = target: B7
Procedure: as §1

ActRIIB-Fc homodimer = target: B2
Procedure: as §1

Kd [1] [nM] | koff [1] [s⁻¹] | kon [1] [M⁻¹ s⁻¹] | Kd (ActRIIB-Fc homodimer) [nM] | koff (ActRIIB-Fc homodimer) [s⁻¹] | kon (ActRIIB-Fc homodimer) [M⁻¹ s⁻¹] | Binder | other results
2.7 | 0.0055 | 2e+06 |  |  |  | B1 | 
 |  |  |  |  |  | B2 | Kd (activin A): 0.019 nM; koff (activin A): 0.00023 s⁻¹; kon (activin A): 1.2e+07 M⁻¹ s⁻¹; Kd (BMP6): 0.19 nM; koff (BMP6): 0.0068 s⁻¹; kon (BMP6): 3.2e+07 M⁻¹ s⁻¹; Kd (activin B): 0.02 nM; koff (activin B): 0.0001 s⁻¹; kon (activin B): 5.1e+06 M⁻¹ s⁻¹
4.9 | 0.017 | 3.4e+06 | 1.5 | 0.0022 | 1.4e+06 | B3 | 
0.012 | 0.00015 | 1.3e+07 |  |  |  | B4 | 
0.003 | 0.00011 | 3.8e+07 | 0.002 | 0.00011 | 5e+07 | B5 | 
3.4 |  |  | 0.077 | 0.0011 | 1.4e+07 | B6 | 
0.006 | 4e-05 | 7.1e+06 |  |  |  | B7 | 
0.074 | 0.0041 | 5.6e+07 | 0.011 | 0.00026 | 2.3e+07 | B8 | 
